The results in this text go back to US20260098096A1.

The experiment concerns the target Human CCR8 (human) (UniProt P51685). The experiment in a line: cell-based or functional assay.

Sequence of Human CCR8 (human) (P51685 whole entry): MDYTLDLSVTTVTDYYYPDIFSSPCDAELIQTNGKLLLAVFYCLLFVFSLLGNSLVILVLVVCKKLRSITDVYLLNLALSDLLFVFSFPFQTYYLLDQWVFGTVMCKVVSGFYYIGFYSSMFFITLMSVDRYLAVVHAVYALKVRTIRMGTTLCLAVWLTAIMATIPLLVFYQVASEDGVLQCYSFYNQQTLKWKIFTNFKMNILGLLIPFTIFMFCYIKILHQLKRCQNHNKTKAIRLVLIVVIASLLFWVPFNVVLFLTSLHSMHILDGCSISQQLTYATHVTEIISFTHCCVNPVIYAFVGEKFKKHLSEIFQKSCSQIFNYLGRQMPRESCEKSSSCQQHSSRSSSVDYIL

“human CCL1 (from UniProt P22362 24-96) (ligand)” displayed an EC90 of chemotaxis of hCCR8 L1.2 cells of 5.84 nM.
